# In US20040106545A1 (MCGILL UNIVERSITY, published 2004):
# Positions of bridges follow the written chain, without caps; N, C: chain ends.
# T1: chick N-cadherin expressed on transfected 3T3 cells (chick, UniProt P10288 165-912)
# T1 sequence (looked up): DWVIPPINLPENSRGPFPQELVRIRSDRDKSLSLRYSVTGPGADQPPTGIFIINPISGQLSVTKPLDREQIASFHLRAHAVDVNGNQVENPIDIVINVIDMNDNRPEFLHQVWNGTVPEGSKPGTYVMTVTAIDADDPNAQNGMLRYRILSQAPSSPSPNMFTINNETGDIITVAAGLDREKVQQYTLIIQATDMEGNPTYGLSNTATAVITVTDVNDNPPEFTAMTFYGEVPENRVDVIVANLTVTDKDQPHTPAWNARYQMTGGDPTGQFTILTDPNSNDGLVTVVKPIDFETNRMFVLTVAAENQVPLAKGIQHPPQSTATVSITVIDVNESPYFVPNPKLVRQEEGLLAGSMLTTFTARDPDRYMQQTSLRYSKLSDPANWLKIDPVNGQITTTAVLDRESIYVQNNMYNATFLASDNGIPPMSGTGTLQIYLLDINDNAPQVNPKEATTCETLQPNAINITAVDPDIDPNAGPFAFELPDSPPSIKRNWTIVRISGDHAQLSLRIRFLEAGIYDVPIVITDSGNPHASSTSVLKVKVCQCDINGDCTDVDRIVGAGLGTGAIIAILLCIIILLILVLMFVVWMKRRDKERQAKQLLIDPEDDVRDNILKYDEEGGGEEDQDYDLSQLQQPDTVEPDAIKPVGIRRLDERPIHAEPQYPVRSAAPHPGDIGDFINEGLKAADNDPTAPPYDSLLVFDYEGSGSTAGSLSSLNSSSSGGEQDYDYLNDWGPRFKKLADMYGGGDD
# B1: N-Ac-S-CHAVC-S-NH2 (peptide)
# peptide: Ac-SCHAVCS-NH2
# modifications: disulfide 2-6
# SMILES: CC(=O)N[C@@H](CO)C(=O)N[C@H]1CSSC[C@@H](C(=O)N[C@@H](CO)C(N)=O)NC(=O)[C@H](C(C)C)NC(=O)[C@H](C)NC(=O)[C@H](Cc2c[nH]cn2)NC1=O
# B2: N-Ac-CHGVDC-NH2 (peptide)
# peptide: Ac-CHGVDC-NH2
# modifications: disulfide 1-6 (inferred)
# B3: N-Ac-CSHGVSC-NH2 (peptide)
# peptide: Ac-CSHGVSC-NH2
# modifications: disulfide 1-7
# SMILES: CC(=O)N[C@H]1CSSC[C@@H](C(N)=O)NC(=O)[C@H](CO)NC(=O)[C@H](C(C)C)NC(=O)CNC(=O)[C@H](Cc2c[nH]cn2)NC(=O)[C@H](CO)NC1=O
# B4: N-Ac-CSHGVC-NH2 (peptide)
# peptide: Ac-CSHGVC-NH2
# modifications: disulfide 1-6
# SMILES: CC(=O)N[C@H]1CSSC[C@@H](C(N)=O)NC(=O)[C@H](C(C)C)NC(=O)CNC(=O)[C@H](Cc2c[nH]cn2)NC(=O)[C@H](CO)NC1=O
# B5: N-Ac-CAHGVDIC-NH2 (peptide)
# peptide: Ac-CAHGVDIC-NH2
# modifications: disulfide 1-8 (inferred)
# B6: N-Ac-CSHGVSSC-NH2 (peptide)
# peptide: Ac-CSHGVSSC-NH2
# modifications: disulfide 1-8
# SMILES: CC(=O)N[C@H]1CSSC[C@@H](C(N)=O)NC(=O)[C@H](CO)NC(=O)[C@H](CO)NC(=O)[C@H](C(C)C)NC(=O)CNC(=O)[C@H](Cc2c[nH]cn2)NC(=O)[C@H](CO)NC1=O
# B7: H-CAHGVDIC-NH2 (peptide)
# peptide: H-CAHGVDIC-NH2
# modifications: disulfide 1-8 (inferred)
# B8: N-Ac-CAHAVDIC-NH2 (peptide)
# peptide: Ac-CAHAVDIC-NH2
# modifications: disulfide 1-8 (inferred)
# B9: N-Ac-CAHGVDC-NH2 (peptide)
# peptide: Ac-CAHGVDC-NH2
# modifications: disulfide 1-7 (inferred)
# B10: N-Ac-CHGVC-NH2 (peptide)
# peptide: Ac-CHGVC-NH2
# modifications: disulfide 1-5 (inferred)
# B11: N-Ac-CLRAHAVC-NH2 (peptide)
# peptide: Ac-CLRAHAVC-NH2
# modifications: disulfide 1-8 (inferred)
# B12: N-Ac-CLRAHGVC-NH2 (peptide)
# peptide: Ac-CLRAHGVC-NH2
# modifications: disulfide 1-8 (inferred)
# B13: N-Ac-CHAVSC-NH2 (peptide)
# peptide: Ac-CHAVSC-NH2
# modifications: disulfide 1-6 (inferred)
# B14: N-Ac-CRAHGVDC-NH2 (peptide)
# peptide: Ac-CRAHGVDC-NH2
# modifications: disulfide 1-8 (inferred)
# B15: N-Ac-CAHGVC-NH2 (peptide)
# peptide: Ac-CAHGVC-NH2
# modifications: disulfide 1-6 (inferred)
# B16: N-Ac-CHGVSC-NH2 (peptide)
# peptide: Ac-CHGVSC-NH2
# modifications: disulfide 1-6 (inferred)
# B17: N-Ac-CSHAVSC-NH2 (peptide)
# peptide: Ac-CSHAVSC-NH2
# modifications: disulfide 1-7
# SMILES: CC(=O)N[C@H]1CSSC[C@@H](C(N)=O)NC(=O)[C@H](CO)NC(=O)[C@H](C(C)C)NC(=O)[C@H](C)NC(=O)[C@H](Cc2c[nH]cn2)NC(=O)[C@H](CO)NC1=O
# B18: N-Ac-CHAVSSC-NH2 (peptide)
# peptide: Ac-CHAVSSC-NH2
# modifications: disulfide 1-7 (inferred)
# B19: N-Ac-CLRAHAVDC-NH2 (peptide)
# peptide: Ac-CLRAHAVDC-NH2
# modifications: disulfide 1-9 (inferred)
# B20: N-Ac-CRAHAVDC-NH2 (peptide)
# peptide: Ac-CRAHAVDC-NH2
# modifications: disulfide 1-8 (inferred)
# B21: N-Ac-CHGVSSC-NH2 (peptide)
# peptide: Ac-CHGVSSC-NH2
# modifications: disulfide 1-7 (inferred)
# B22: H-CAHGVDC-NH2 (peptide)
# peptide: H-CAHGVDC-NH2
# modifications: disulfide 1-7 (inferred)
# B23: N-Ac-CAHAVDC-NH2 (peptide)
# peptide: Ac-CAHAVDC-NH2
# modifications: disulfide 1-7 (inferred)
# B24: N-Ac-CSHAVSSC-NH2 (peptide)
# peptide: Ac-CSHAVSSC-NH2
# modifications: disulfide 1-8
# SMILES: CC(=O)N[C@H]1CSSC[C@@H](C(N)=O)NC(=O)[C@H](CO)NC(=O)[C@H](CO)NC(=O)[C@H](C(C)C)NC(=O)[C@H](C)NC(=O)[C@H](Cc2c[nH]cn2)NC(=O)[C@H](CO)NC1=O
# B25: N-Ac-CLRAHGVDC-NH2 (peptide)
# peptide: Ac-CLRAHGVDC-NH2
# modifications: disulfide 1-9 (inferred)
# B26: N-Ac-CAHAVC-NH2 (peptide)
# peptide: Ac-CAHAVC-NH2
# modifications: disulfide 1-6 (inferred)
# B27: H-CHGVC-NH2 (peptide)
# peptide: H-CHGVC-NH2
# modifications: disulfide 1-5 (inferred)
# B28: H-KHGVD-NH2 (peptide)
# peptide: H-KHGVD-NH2
# modifications: lactam 1-5 (inferred)
# B29: N-Ac-KHAVD-NH2 (peptide)
# peptide: Ac-KHAVD-NH2
# modifications: lactam 1-5 (inferred)
# B30: H-KHAVD-NH2 (peptide)
# peptide: H-KHAVD-NH2
# modifications: lactam 1-5 (inferred)
# B31: N-Ac-KHGVD-NH2 (peptide)
# peptide: Ac-KHGVD-NH2
# modifications: lactam 1-5 (inferred)
# B32: N-Ac-CHAVPC-NH2 (peptide)
# peptide: Ac-CHAVPC-NH2
# modifications: disulfide 1-6 (inferred)
# B33: N-Ac-CHAVDINGC-NH2 (peptide)
# peptide: Ac-CHAVDINGC-NH2
# modifications: disulfide 1-9 (inferred)
# Target: T1, chick N-cadherin expressed on …
# Experiment: cell-based or functional assay
row,Percent Inhibition of N-cadherin dependent neurite outgrowth (peptide 250 µg/ml) [%],Binder
1,15.7,B1

# Target: T1, chick N-cadherin expressed on …
# Experiment: cell-based or functional assay
# Remark: another data set of the same source
row,% inhibition of N-cadherin dependent neurite outgrowth (peptide 250 µg/mL) [%],Binder
1,-8.6,B2
2,10.8,B3
3,12.5,B4
4,4.8,B5
5,-5.6,B6
6,7.2,B7
7,89.4,B8
8,4,B9
9,4.8,B10
10,9.9,B11
11,-0.5,B12
12,-2.5,B13
13,-8,B14
14,-6.4,B15
15,-6.7,B16
16,8.3,B17
17,34.4,B18
18,76.3,B19
19,-5,B20
20,14.8,B21
21,5.7,B22
22,13.3,B23
23,-12.6,B24
24,-6.8,B25
25,58.5,B26
26,7.8,B27

# Target: N-cadherin expressed on transfected 3T3 cells (Examples 2 and 21)
# Experiment: cell-based or functional assay
row,"% Inhibition of neurite outgrowth, 250 µg/mL (rat neurons) [%]",Binder
1,0,B2
2,0,B28
3,0,B3
4,0,B4
5,0,B5
6,0,B6
7,0,B7
8,82,B8
9,0,B10
10,0,B11
11,0,B12
12,0,B13
13,0,B14
14,0,B15
15,0,B16
16,0,B17
17,0,B18
18,0,B29
19,60,B19
20,0,B30
21,0,B20
22,0,B21
23,0,B31
24,0,B22
25,0,B24
26,0,B25
27,51,B26
28,0,B27

# Target: T1, chick N-cadherin expressed on …
# Experiment: cell-based or functional assay
# Remark: another data set of the same source
% inhibition of neurite outgrowth (peptide 125 µg/mL) [%],EC50 for inhibition of neurite outgrowth [µM],Binder
58,185,B32
1.5,,B33
